{"source": "the nanobody polyreactivity screen of Harvey et al. (2022)", "assay": "yeast display, Sf9 membrane polyspecificity reagent, FACS + sequencing; frameworks hold sequencing errors", "summary_of_the_method": "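Sorting gates, low and high (top ~1%), were placed on anti-HA fluorescence to track expression and on streptavidin fluorescence to track reagent binding. A clone's polyreactivity label is taken from the gate it came out of. The reagent was 10% biotinylated, detergent-solubilized Sf9 membrane, applied for 1 hour at 4 °C to galactose-induced yeast display cells.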", "data": [{"sequence": "QVQLVESGGGLVQAGGSLRLSCAASGFTFYANAKGWYRQAPGKERELVAAIDQSGTSTNYADSVKGRFTISRDNAKNTVYLQMNSLKPDDTAVYYCAADSSFYYYPLILFWGDYWGQGTQVTVSS", "values": [{"measurement": "polyreactivity (PSR sort gate)", "value": "low polyreactivity"}]}, {"sequence": "QVQLVESGGGLVQAGCSLRLSCAASGFTFPIYAMGWYRQAPGKEREFVAAITASGDNTYYADSVKGRFTISRDNAKNTVYLQINSLKPEDTAVYYCAADWFVDWWEYDYWGQGTQVTVSS", "values": [{"measurement": "polyreactivity (PSR sort gate)", "value": "low polyreactivity"}]}, {"sequence": "QVQLVDSGGGLVQAGGSRRVSCAASAFTFLWNAMGWYRQAPGKEREMVAAINGNSGNTYYADSVKGRFTLSVDNAKNTVYLQMNSMKAEDTAVYYCAKQGNNIPCYRPYGDYYYWGQGTQVTVSS", "values": [{"measurement": "polyreactivity (PSR sort gate)", "value": "low polyreactivity"}]}, {"sequence": "QVQLVESGGGLVQAGGSLRLSCAASGRICDFYSMGWYRQAPGKERELVAAIDSDGSTNYADSVKGRFTISRDNAKNNVYLQMNSLKPEDTAVSYCNADIWAYTYRRYDYWGQGTQVTVSS", "values": [{"measurement": "polyreactivity (PSR sort gate)", "value": "low polyreactivity"}]}, {"sequence": "QVQLVESGGGLVHEGGSLRLSFAASGPTFYRYTMGWYRQAPGKERELVATITGGGSTNYADSVKGRFTISRDNAKNTVYLQMNSLKPEDTAVYYCARAVVQSRGPPRYKTPYDYWGQGTQVTVSS", "values": [{"measurement": "polyreactivity (PSR sort gate)", "value": "low polyreactivity"}]}, {"sequence": "QVQLVESGGGLVQAGGSLRITCAASGSTFGPYVMGWYRQAPGKEMELVAAISLSGASTYYADSVKGRFTISRDNAKNNVYLQMISLKPEETAVYYCAAQTPYGMYYWGQGTQVTVSS", "values": [{"measurement": "polyreactivity (PSR sort gate)", "value": "low polyreactivity"}]}, {"sequence": "QVQLVESGGGLVQAGGSLRLSCADSGSNFRTYVMGWYRQAPGNERDMVAAITNGISTNYADSVKGRFTISRDNAKNSVYLQMISMKPEDTAVYYCAAGFRSTYYTFRFGYWGQGTQVTVST", "values": [{"measurement": "polyreactivity (PSR sort gate)", "value": "high polyreactivity"}]}, {"sequence": "QVQLVESGGGLVQAGGSLRLSCAASGFIFYRWYALGWYIQAPGKERELVAAIRSGGSTYYADSVKGRFTISRDNAKNTVYLQMNSLKPEDTAVYYCSTSGPQYYSRHFDYWGEGTQVTVSS", "values": [{"measurement": "polyreactivity (PSR sort gate)", "value": "low polyreactivity"}]}, {"sequence": "QVQLVESGGGLVQAGGSLRLSCAASGFIFTYNDMGWYRQAPGKERELVASITWDGGRTYYADAVKGRCTISRDNAKNTVYLQMISLKPEDTADYYCAKRLGGSPIQARGDYWGQGTQVTVSS", "values": [{"measurement": "polyreactivity (PSR sort gate)", "value": "low polyreactivity"}]}, {"sequence": "QVQLVESGGGLVQAGGSHRLSCAASGSTLGDYAMGWYRQAPGKERELVAAISNGVSTNYADSVKGRFTISRDNAKNTVYLQKNSLKPVDTAVYYCNAGSGWGSLLEYDYWGQGTKVTVSS", "values": [{"measurement": "polyreactivity (PSR sort gate)", "value": "low polyreactivity"}]}, {"sequence": "QVQLVESGGGLVQAGGSLRLSCAASGGIFLGNAMAWYRQATGKETELVASITRGGDTSYADSVKARFTFSRDNAKNTVYLQMNSLKPEDTAVYYCNADYYSVVEYDYWGQGTQVTVSS", "values": [{"measurement": "polyreactivity (PSR sort gate)", "value": "low polyreactivity"}]}, {"sequence": "QVQLVESGGGLVQAGGRLRLSCAASGSTFIYYAMGWYRQAPGKERELVAAITGRGTRTYYADSVKGRFTISRDNAKNTVYLQMNSLKPEDTAVYYCNTLQTYLYDYWGQGTQVTVSS", "values": [{"measurement": "polyreactivity (PSR sort gate)", "value": "high polyreactivity"}]}, {"sequence": "QVQLVESGGGLVQAGGSLRLICAASGFTFAKYAMGSYTQAPGKERQLVAGITGNSGTTYYADSVKGRFTISRDNAKNTVYLQMNSLKPEDTAVYYCAAEEVSWNGTGDYWGQGTQVTVSS", "values": [{"measurement": "polyreactivity (PSR sort gate)", "value": "high polyreactivity"}]}, {"sequence": "QFQLVESGGGLVQAGGSLRLSCAASGRTLHGYTMGWYRQAPGKVREFVATISSIGGSTYYADSVKGRFTISRDNAKNTVYLQMNSLKPEDTAVYYCNRGRARVIFSGMDYWGQGTQVTVSS", "values": [{"measurement": "polyreactivity (PSR sort gate)", "value": "low polyreactivity"}]}, {"sequence": "QVQLVESGGGLVQAGGSLRLSCAASGSNFAYNAMGWYRQAPGKERELVAGITTSGSRTYYADSVKGRFTISRDNAKNTVYLQMNSLKPEDTAVYYCAADPYFYPIYDYWGQGTQVTVSS", "values": [{"measurement": "polyreactivity (PSR sort gate)", "value": "low polyreactivity"}]}, {"sequence": "QVQLVESGGGLVQAGGSLRLSCAASGSTFRRYAMGWYRQAPGKERELVAAITWRGGSTYYADSVKGRFTISRDNAKNTVFLQMNSLKPEDTAVYYCATSDYYYDYWGQGTQVTVSS", "values": [{"measurement": "polyreactivity (PSR sort gate)", "value": "high polyreactivity"}]}, {"sequence": "QVHLVESGGGLVQAGGILRLSCAASGFIFLQYTMGWYRPAPGKERELVAGISWSGDSTYYADSVKGRFTISRDNAKNTVYLQMNSLKPEDTAVYYCNADWRAAGSDFAFGNPQLYDDWGQGSQVTVSS", "values": [{"measurement": "polyreactivity (PSR sort gate)", "value": "low polyreactivity"}]}, {"sequence": "QVQLVESGGGLVQAGGSLRLSCAASGRIIVPYVMGWYRLAPGKERELVAAISTSGTSTYYADSVKGRFTISRDNAKNTVYLQMNSLKPEDTAVYYCAKRSGARHRLMDYWGQGTQVTVSS", "values": [{"measurement": "polyreactivity (PSR sort gate)", "value": "low polyreactivity"}]}, {"sequence": "HVQLVESGGGLVQAGARLRLSCAASGITFFYYAMGWYRQAPGKERELVAAINWSGRTYYADSVKGRFTISRDNAKNTVYLQMNSLKPEDTAVDYCAAVTYGPGVSGMDYWGQGTQVTVSS", "values": [{"measurement": "polyreactivity (PSR sort gate)", "value": "low polyreactivity"}]}, {"sequence": "QVQHVESGGGLVQAGGSLRLSCAASGRTFRLYAMGRYRMAPGKERELVAAITRGGRTNYADSVKGRFTISRDNAKNTVYLQMNSLKPEDTAVYYCAVAGFDRGQYVRYYYWGQGTQVTVSS", "values": [{"measurement": "polyreactivity (PSR sort gate)", "value": "low polyreactivity"}]}, {"sequence": "QVQLVESGGGLVQAGGSLRLSCAASGRIFSSYALGWYRQARGKERELVAAISASGGRTYYADSVKGRCTISRDNAKNTVYLQMNSLKPEDTAVYYCNRGYISGSVVERYYWGQGTQVTVSS", "values": [{"measurement": "polyreactivity (PSR sort gate)", "value": "high polyreactivity"}]}]}
